Measurements published in patent US20110256140A1 (POMONA RICERCA S R L, published 2011).

Experiments:
Assay in all cases: binding of Fab e20 to H77 E1E2 alanine mutants; method not stated
[1] = molecular target: H77 E1E2 mutant I413A (Hepatitis C virus genotype 1a, H77) (UniProt P27958)
[2] = molecular target: H77 E1E2 mutant Y486A (Hepatitis C virus genotype 1a, H77) (UniProt P27958)
[3] = molecular target: H77 E1E2 mutant G530A (Hepatitis C virus genotype 1a, H77) (UniProt P27958)
[4] = molecular target: H77 E1E2 mutant T414A (Hepatitis C virus genotype 1a, H77) (UniProt P27958)
H77 E1E2 mutant R483A = molecular target: T1, H77 E1E2 mutant R483A (Hepatitis C virus genotype 1a, H77, UniProt P27958 384-746)
T1 construct: Co-expressed with E1; P27958 is the whole polyprotein

H77 E1E2 mutant N423A = molecular target: T2, H77 E1E2 mutant N423A (Hepatitis C virus genotype 1a, H77, UniProt P27958 384-746)
T2 construct: Co-expressed with E1; P27958 is the whole polyprotein

H77 E1E2 mutant N417A = molecular target: T3, H77 E1E2 mutant N417A (Hepatitis C virus genotype 1a, H77, UniProt P27958 384-746)
T3 construct: Co-expressed with E1; P27958 is the whole polyprotein

H77 E1E2 mutant R543A = molecular target: T4, H77 E1E2 mutant R543A (Hepatitis C virus genotype 1a, H77, UniProt P27958 384-746)
T4 construct: Co-expressed with E1; P27958 is the whole polyprotein

H77 E1E2 mutant F550A = molecular target: T5, H77 E1E2 mutant F550A (Hepatitis C virus genotype 1a, H77, UniProt P27958 384-746)
T5 construct: Co-expressed with E1; P27958 is the whole polyprotein

H77 E1E2 mutant G418A = molecular target: T6, H77 E1E2 mutant G418A (Hepatitis C virus genotype 1a, H77, UniProt P27958 384-746)
T6 construct: Co-expressed with E1; P27958 is the whole polyprotein

H77 E1E2 mutant W420A = molecular target: T7, H77 E1E2 mutant W420A (Hepatitis C virus genotype 1a, H77, UniProt P27958 384-746)
T7 construct: Co-expressed with E1; P27958 is the whole polyprotein

H77 E1E2 mutant T416A = molecular target: T8, H77 E1E2 mutant T416A (Hepatitis C virus genotype 1a, H77, UniProt P27958 384-746)
T8 construct: Co-expressed with E1; P27958 is the whole polyprotein

H77 E1E2 mutant N532A = molecular target: T9, H77 E1E2 mutant N532A (Hepatitis C virus genotype 1a, H77, UniProt P27958 384-746)
T9 construct: Co-expressed with E1; P27958 is the whole polyprotein

H77 E1E2 mutant P544A = molecular target: T10, H77 E1E2 mutant P544A (Hepatitis C virus genotype 1a, H77, UniProt P27958 384-746)
T10 construct: Co-expressed with E1; P27958 is the whole polyprotein

H77 E1E2 mutant P484A = molecular target: T11, H77 E1E2 mutant P484A (Hepatitis C virus genotype 1a, H77, UniProt P27958 384-746)
T11 construct: Co-expressed with E1; P27958 is the whole polyprotein

H77 E1E2 mutant H488A = molecular target: T12, H77 E1E2 mutant H488A (Hepatitis C virus genotype 1a, H77, UniProt P27958 384-746)
T12 construct: Co-expressed with E1; P27958 is the whole polyprotein

H77 E1E2 mutant Y527A = molecular target: T13, H77 E1E2 mutant Y527A (Hepatitis C virus genotype 1a, H77, UniProt P27958 384-746)
T13 construct: Co-expressed with E1; P27958 is the whole polyprotein

H77 E1E2 mutant I422A = molecular target: T14, H77 E1E2 mutant I422A (Hepatitis C virus genotype 1a, H77, UniProt P27958 384-746)
T14 construct: Co-expressed with E1; P27958 is the whole polyprotein

H77 E1E2 mutant H421A = molecular target: T15, H77 E1E2 mutant H421A (Hepatitis C virus genotype 1a, H77, UniProt P27958 384-746)
T15 construct: Co-expressed with E1; P27958 is the whole polyprotein

H77 E1E2 mutant T534A = molecular target: T16, H77 E1E2 mutant T534A (Hepatitis C virus genotype 1a, H77, UniProt P27958 384-746)
T16 construct: Co-expressed with E1; P27958 is the whole polyprotein

H77 E1E2 mutant W487A = molecular target: T17, H77 E1E2 mutant W487A (Hepatitis C virus genotype 1a, H77, UniProt P27958 384-746)
T17 construct: Co-expressed with E1; P27958 is the whole polyprotein

H77 E1E2 mutant Q412A = molecular target: T18, H77 E1E2 mutant Q412A (Hepatitis C virus genotype 1a, H77, UniProt P27958 384-746)
T18 construct: Co-expressed with E1; P27958 is the whole polyprotein

H77 E1E2 mutant N540A = molecular target: T19, H77 E1E2 mutant N540A (Hepatitis C virus genotype 1a, H77, UniProt P27958 384-746)
T19 construct: Co-expressed with E1; P27958 is the whole polyprotein

H77 E1E2 mutant D535A = molecular target: T20, H77 E1E2 mutant D535A (Hepatitis C virus genotype 1a, H77, UniProt P27958 384-746)
T20 construct: Co-expressed with E1; P27958 is the whole polyprotein

H77 E1E2 mutant G547A = molecular target: T21, H77 E1E2 mutant G547A (Hepatitis C virus genotype 1a, H77, UniProt P27958 384-746)
T21 construct: Co-expressed with E1; P27958 is the whole polyprotein

H77 E1E2 mutant W549A = molecular target: T22, H77 E1E2 mutant W549A (Hepatitis C virus genotype 1a, H77, UniProt P27958 384-746)
T22 construct: Co-expressed with E1; P27958 is the whole polyprotein

H77 E1E2 mutant S419A = molecular target: T23, H77 E1E2 mutant S419A (Hepatitis C virus genotype 1a, H77, UniProt P27958 384-746)
T23 construct: Co-expressed with E1; P27958 is the whole polyprotein

H77 E1E2 mutant N415A = molecular target: T24, H77 E1E2 mutant N415A (Hepatitis C virus genotype 1a, H77, UniProt P27958 384-746)
T24 construct: Co-expressed with E1; P27958 is the whole polyprotein

H77 E1E2 mutant D533A = molecular target: T25, H77 E1E2 mutant D533A (Hepatitis C virus genotype 1a, H77, UniProt P27958 384-746)
T25 construct: Co-expressed with E1; P27958 is the whole polyprotein

H77 E1E2 mutant P545A = molecular target: T26, H77 E1E2 mutant P545A (Hepatitis C virus genotype 1a, H77, UniProt P27958 384-746)
T26 construct: Co-expressed with E1; P27958 is the whole polyprotein

B1: Fab e20 (Fab, V domains shown)
VH: LLEQSGAEVKKPGSSVKVSCKASGDHYGINWVRQAPGQGLEWMGGIIPVFGTTTYAQKFQGRATITADDSTGTAFLELTRLTFDDTAVYFCATPHQLHVLRGGKALSPWDYWGQGT
VL: MAELTQSPATLSVSPGERATLSCRASQSVSSNLAWYQQKRGQAPSLLIYGTSTRATGIPARFSGSGSGTEFTLTISSLQSEDFAVYYCQQYNDWPSTFGQGT
notes: also called e20 antibody fragment
Binder B1 has an e20 binding activity (% of wild-type H77) (% of wild-type H77) [1] of 100, an e20 binding activity (% of wild-type H77) (% of wild-type H77) [2] of 95 and an e20 binding activity (% of wild-type H77) (% of wild-type H77) [3] of 3. The e20 binding activity (% of wild-type H77) (% of wild-type H77) [4] was 95, the “e20 binding activity (% of wild-type H77)” value (H77 E1E2 mutant R483A) was 100 % of wild-type H77 and the “e20 binding activity (% of wild-type H77)” value (H77 E1E2 mutant N423A) was 100 % of wild-type H77. For the same binder, the “e20 binding activity (% of wild-type H77)” value (H77 E1E2 mutant N417A) was 97 % of wild-type H77, the “e20 binding activity (% of wild-type H77)” value (H77 E1E2 mutant R543A) was 68 % of wild-type H77 and the “e20 binding activity (% of wild-type H77)” value (H77 E1E2 mutant F550A) was 94 % of wild-type H77. For the same binder, the “e20 binding activity (% of wild-type H77)” value (H77 E1E2 mutant G418A) was 100 % of wild-type H77, the “e20 binding activity (% of wild-type H77)” value (H77 E1E2 mutant W420A) was 97 % of wild-type H77 and the “e20 binding activity (% of wild-type H77)” value (H77 E1E2 mutant T416A) was 96 % of wild-type H77. The “e20 binding activity (% of wild-type H77)” value (H77 E1E2 mutant N532A) was 100 % of wild-type H77, the “e20 binding activity (% of wild-type H77)” value (H77 E1E2 mutant P544A) was 72 % of wild-type H77 and the “e20 binding activity (% of wild-type H77)” value (H77 E1E2 mutant P484A) was 100 % of wild-type H77. For the same binder, the “e20 binding activity (% of wild-type H77)” value (H77 E1E2 mutant H488A) was 100 % of wild-type H77, the “e20 binding activity (% of wild-type H77)” value (H77 E1E2 mutant Y527A) was 92 % of wild-type H77 and the “e20 binding activity (% of wild-type H77)” value (H77 E1E2 mutant I422A) was 100 % of wild-type H77. For the same binder, the “e20 binding activity (% of wild-type H77)” value (H77 E1E2 mutant H421A) was 100 % of wild-type H77, the “e20 binding activity (% of wild-type H77)” value (H77 E1E2 mutant T534A) was 100 % of wild-type H77 and the “e20 binding activity (% of wild-type H77)” value (H77 E1E2 mutant W487A) was 100 % of wild-type H77. For the same binder, the “e20 binding activity (% of wild-type H77)” value (H77 E1E2 mutant Q412A) was 100 % of wild-type H77, the “e20 binding activity (% of wild-type H77)” value (H77 E1E2 mutant N540A) was 70 % of wild-type H77 and the “e20 binding activity (% of wild-type H77)” value (H77 E1E2 mutant D535A) was 10 % of wild-type H77. The “e20 binding activity (% of wild-type H77)” value (H77 E1E2 mutant G547A) was 98 % of wild-type H77, the “e20 binding activity (% of wild-type H77)” value (H77 E1E2 mutant W549A) was 96 % of wild-type H77 and the “e20 binding activity (% of wild-type H77)” value (H77 E1E2 mutant S419A) was 100 % of wild-type H77. For the same binder, the “e20 binding activity (% of wild-type H77)” value (H77 E1E2 mutant N415A) was 98 % of wild-type H77, the “e20 binding activity (% of wild-type H77)” value (H77 E1E2 mutant D533A) was 100 % of wild-type H77 and the “e20 binding activity (% of wild-type H77)” value (H77 E1E2 mutant P545A) was 97 % of wild-type H77.
